Values joined by “and” are separate entries in the source; they are usually repeats but may differ in a detail not shown here. Equal entries are not always repeated.
Experiment: Determination of transition temperature (Tt) of ELPs by absorbance at 610 nm
Assay type: physicochemical
Conditions: 0.5× PBS; temperature at which absorbance at 610 nm reaches 50% of maximum
Method: The transition temperatures (Tt) of C8ELP and C12ELP were characterized by monitoring the absorbance at 610 nm as a function of temperature with an UV-visible spectrophotometer (Beckman DU530) in 0.5× phosphate-buffered solution (PBS). Briefly, 1 ml of C8ELP (0.5 mg/ml in 0.5×PBS) and 1 ml of C12ELP (1 mg/ml in 0.5×PBS) were prepared and placed in 1.5-ml disposable cuvettes. The temperature of CnELP (n: the number of cysteines in the ELP repeat sequence; n=8/12) was tuned by placing the CnELP-contained cuvette into a Precision 288 Digital Water Bath (Thermo Scientific) and was recalibrated by FLUKE 54 II (Type K) thermometer before absorbance measurement. The absorbance of CnELP was monitored at 610 nm with an UV-visible spectrophotometer (Beckman DU530) immediately after withdrawing the cuvette out of the water bath. The Tt is defined as the temperature at which the absorbance of CnELP solution reaches 50% of the maximum value. The temperature response of the C8ELP and C12ELP indicated Tt values of 31.3 and 30.5° C., respectively.

Row | Molecule | Transition temperature (Tt)
1 | C8ELP: Elastin-like polypeptide with 8 cysteine residues, SEQ ID NO:1, expressed in E. coli (protein, elastin-like polypeptide) MVSACRGPGVGVPGVGVPGVGVPGVGVPGVGVPGVGVPGVGVPGVGVPGVGVPGVGVPGVGVPGVGVPGVGVPGVGVPGVGVPGVGVPGVGVPGVGVPGVGVPGVGVPGVGVPGVGVPGVGVPGVGVPGVGVPGVGVPGVGVPGVGVPGVGVPGVGVPGVGVPGVGVPGVGVPGVGVPGVGVPGVGVPGVGVPGVGVPGVGVPGVGVPGVGVPGVGVPGVGVPGCGVPGVGVPGVGVPGVGVPGVGVPGCGVPGVGVPGVGVPGVGVPGVGVPGCGVPGVGVPGVGVPGVGVPGVGVPGCGVPGVGVPGVGVPGVGVPGVGVPGCGVPGVGVPGVGVPGVGVPGVGVPGCGVPGVGVPGVGVPGVGVPGVGVPGCGVPGVGVPGVGVPGVGVPGVGVPGCGVPGVGVPGWP | 31.3 °C
2 | C12ELP: Elastin-like polypeptide with 12 cysteine residues, SEQ ID NO:2, expressed in E. coli (protein, elastin-like polypeptide) MVSACRGPGVGVPGVGVPGVGVPGVGVPGVGVPGVGVPGVGVPGVGVPGVGVPGVGVPGVGVPGVGVPGVGVPGVGVPGVGVPGVGVPGVGVPGVGVPGVGVPGVGVPGVGVPGVGVPGVGVPGVGVPGVGVPGVGVPGVGVPGVGVPGVGVPGVGVPGVGVPGVGVPGVGVPGVGVPGVGVPGVGVPGVGVPGVGVPGVGVPGVGVPG | 30.4 °C and 30.5 °C

Reference: patent US10154881B2, “Methods and compositions for tissue adhesives” (ARIZONA BOARD OF REGENTS FOR AND ON BEHALF OF ARIZONA STATE …, priority 2012, dated 2018)
